The source of these data is paper PMC10432850, “NME3 binds to phosphatidic acid and mediates PLD6-induced mitochondrial tethering” (The Journal of Cell Biology, 2023).

The data set deals with the molecule itself. As to the kind of experiment: cross-linking; 4 uM purified protein cross-linked with glutaraldehyde, detected by Western blotting.

B1: NME3^WT-His (natural protein, human, UniProt Q13232 1-169, looked up)
chain: MICLVLTIFANLFPAACTGAHERTFLAVKPDGVQRRLVGEIVRRFERKGFKLVALKLVQASEELLREHYAELRERPFYGRLVKYMASGPVVAMVWQGLDVVRTSRALIGATNPADAPPGTIRGDFCIEVGKNLIHGSDSVESARREIALWFRADELLCWEDSAGHWLYE
notes: NME3 (nucleoside diphosphate kinase 3), human, wild type; also called NME3-His; source: E. coli BL21, purified (HisPur Ni-NTA resin, dialysed); not shown: His, C-terminal, kept
Take B1: the binding result is listed as “binds”.

B2: NME3^ΔN-His (domain or fragment, human, UniProt Q13232 18-169, looked up)
chain: TGAHERTFLAVKPDGVQRRLVGEIVRRFERKGFKLVALKLVQASEELLREHYAELRERPFYGRLVKYMASGPVVAMVWQGLDVVRTSRALIGATNPADAPPGTIRGDFCIEVGKNLIHGSDSVESARREIALWFRADELLCWEDSAGHWLYE
notes: NME3 (nucleoside diphosphate kinase 3), human, lacking the N-terminal 17 amino acids (N17); also called N17 truncated NME3; source: E. coli BL21, purified (HisPur Ni-NTA resin, dialysed); not shown: His, C-terminal, kept
As for B2, the “stoichiometry N” value came out at 6.
